Test results taken from patent US9803012B2, “Compositions and methods for regulating SAS1R” (UNIVERSITY OF VIRGINIA PATENT FOUNDATION, priority 2005, dated 2017).

What was measured:
Format in all cases: cell-based, mouse
[1] = system: Metaphase II eggs; experiment: Egg labeling by indirect immunofluorescence; conditions: 100 μg/ml protein, 45 min
Procedure: Metaphase II eggs were obtained as previously described (Coonrod et al, 1999) and incubated with 5% NGS/media for 30 min. Oocytes were washed five times in TYH medium and incubated with 100 μg/ml recmSLLP1 or 100 μg/ml lysozymes for 45 min at 37° C. and 5% CO2. Oocytes were washed five times and incubated with guinea pig anti-recmSLLP1 polyclonal antibody (1:50), sheep anti-human lysozyme (1:25) or rabbit anti-chicken lysozyme (1:400) in 5% NGS/media for 1 h at 37° C. and 5% CO2. Oocytes were washed five times and incubated with donkey anti-guinea pig/Texas Red antibody (1:200) or goat anti-guinea pig/FITC antisera 1:200), donkey anti-sheep and goat anti-rabbit FITC-labeled secondary antibody (1:200) (Jackson ImmunoResearch), respectively in 5% NGS/media for 1 h at […] 37° C. and 5% CO2. Oocytes were washed and mounted in media onto glass slides and visualized under a Zeiss Standard 18 ultraviolet microscope. Images were captured by using MrGrab 1.0 (Carl Zeiss Vision GmbH, Germany).

[2] = system: M2 oocytes; experiment: Co-localization of rSLLP1 binding sites and SAS1R on oocytes; conditions: oocytes incubated with rSLLP1, probed with SLLP1 and SAS1R antibodies
Procedure: Zona intact-, zona free oocytes, early embryos and sperm were collected as before (10), blocked and probed with 1st and 2nd antibody and imaged with UV-microscopy. For co-LC studies, gametes were incubated with soluble rSAS1R or rSLLP1, washed, probed with 1st- and 2nd antibodies and imaged with UV-microscopy.
Mouse oocytes were also examined for co-localization of SLLP1 binding sites and SAS1R localization. Oocytes were incubated with gradually increasing concentrations (0-100 μg/ml) of recombinant SLLP1 for 1 h, and then oocytes were washed five times and incubated with guinea pig anti-recombinant SAS1R polyclonal antibody (1:200) and rat anti-recombinant SLLP1 polyclonal antibody (1:200), simultaneously, in 0.1% NGS/media for 1 h at 37° C. and 5% CO2. Oocytes were washed five times and incubated with goat anti-guinea pig/Cy3 Red antibody (1:200) (Jackson ImmunoResearch, PA) and goat anti-rat/FITC Green antibody (1:200) (Jackson ImmunoResearch, PA), in 0.1% NGS/media for 1 h at 37° C. and 5% CO2. Oocytes were washed and mounted in media on glass slides. SLLP1 and SAS1R images were captured separately with MrGrab 1.0 (Carl Zeiss Vision GmbH, Germany) on the Zeiss Standard 18 ultraviolet microscope and were merged digitally to evaluate their respective localizations.

[3] = system: cumulus intact oocytes; experiment: In vitro fertilization with cumulus-oocyte complexes (SLLP1 antiserum, recmSLLP1); conditions: for % Fertilization: oocytes 45 min prior to insemination
Procedure: Hybrid F1 mice (C57BL/6J×CBA) were used in all experiments. Suspensions of epididymal spermatozoa from sexually mature male mice were prepared for insemination of isolated oocytes. Oocytes were obtained from 28-day-old females superovulated with 10 IU PMSG and 10 IU hCG, injected intraperitoneally 48 h apart. Females were killed 16 h after hCG injection and both oviducts were immediately removed and placed in mineral oil.
In vitro fertilization with cumulus intact oocytes was conducted with sperm dispersed from cauda epididymides placed for 5 min in 200 μl drops of fertilization medium under paraffin oil. The sperm suspension was diluted to a concentration of 10^6 sperm/ml in a volume of 200 μl and then incubated for 120 min in a humidified tissue culture incubator (37° C., 5% CO2 in air) to allow capacitation. In the experiments where anti-recmSLLP1 serum was tested, spermatozoa were incubated with varying concentrations of decomplemented (56° C., 30 min) immune or preimmune serum for the last 45 min of capacitation. In the experiments where recmSLLP1 was evaluated, spermatozoa were incubated under standard capacitating conditions.
Cumulus masses were placed in 135 μl drops of fertilization medium (one mass per drop) under paraffin oil and were incubated for 45 min with immune or preimmune serum or in presence or absence of recmSLLP1 prior to insemination. Fifteen μl of the sperm suspension (final concentration: 10^5 sperm/ml) was then added to each cumulus mass drop. Thus, sera or recombinant protein was present in the incubation droplet during gamete interaction. Six hours following insemination oocytes were relocated in 100 μl drops of fertilization medium under mineral oil. Following overnight incubation, eggs were stained in Hoechst dye (10 μg/ml) for 10 min and washed 3 times in fertilization medium. The eggs were then placed in a 5 μl drop of fertilization medium between a microscope slide and an elevated coverslip, and visualized at 160× using light and fluorescence microscopy (Zeiss Axioplan). Two cells embryos were scored as fertilized, while one-celled oocytes were scored as unfertilized.

B1: recmSLLP1: mature mouse SLLP1, residues 94 to 221, six-histidine C terminal tag, expressed in E. coli, about 15 kDa (protein)
chain: KVFSRCELAKEMHDFGLDGYRGYNLADWVCLAYYTSGFNTNAVDHEADGSTNNGIFQISSRRWCRTLASNGPNLCRIYCTDLLNNDLKDSIVCAMKIVQEPLGLGYWEAWRHHCQGRDLSDWVDGCDF
modifications: left off: small tags and cut ends
Q: Which results are given for B1?
A: fluorescence of mouse oocytes after incubation with protein and respective antibody [1]: fluorescent labeling within the perivitelline space and over much of the oocyte surface; binding to oocytes [2]: binds to oocyte microvillar domain and co-localizes with native SAS1R; difference in percentage of fertilization vs control ([3]; recmSLLP1 50 μg/ml): no significant difference; % Fertilization ([3]; recmSLLP1 50 μg/ml): 48%; inhibition of fertilization rate vs control ([3]; recmSLLP1 200 μg/ml, P≦0.05): 73%; % Fertilization ([3]; recmSLLP1 200 μg/ml): 12%
